# Results published in the DeepSol protein solubility set.
# Experiment: soluble on expression in E. coli; label from the status in PepcDB or PDB records
row,Sequence,soluble on expression in E. coli
1,PIGKSADNMYSYLALVQDDPTVQVVNMAQKAYVEHYIQGDPDLAKLPVLSAAAPFKVGGRKNDPASFVEVEKGQLTFRNAADLYLYPNTLVVMKVSGKEVKEWLECSAGQFNQIDPASSKPQSLINWDGFRTYNFDVIDGVNYQIDVTQPARYDGECQMIHPQAERIKHLTFNGKPVDPQATFLVATNNYRAYGGKFAGTGESHIAFASPDENRSVLAAWIGAQSKKEGAIHPAADNNWRLAPI,not soluble
2,PITNGHLDLIERAAQMFDEVIIAVAASPSKNTLFTLEERVEFARQVTSHLDNVSAKGFSGLLVDFAKAEKANVLIRGLRTTVDFEYEFGLTNMYRRLMPGLESVFLTPAEEHAFISSTLVREVAIHGGNVDEFVPAIVANALHQKKKI,not soluble
3,PKHGKRYRALLEKVDPNKIYTIDEAAHLVKELATAKFDETVEVHAKLGIDPRRSDQNVRGTVSLPHGLGKQVRVLAIAKGEKIKEAEEAGADYVGGEEIIQKILDGWMDFDAVVATPDVMGAVGSKLGRILGPRGLLPNPKAGTVGFNIGEIIREIKAGRIEFRNDKTGAIHAPVGKASFPPEKLADNIRAFIRALEAHKPEGAKGTFLRSVYVTTTMGPSVRINPHS,soluble
4,PKPPIDLVVTETTATSVTLTWDSGNSEPVTYYGIQYRAAGTEGPFQEVDGVATTRYSIGGLSPFSEYAFRVLAVNSIGRGPPSEAVRARTGEQ,soluble
5,PLYLGLMSGTSIDGIDAALVRINANPITHCELIAAQTSAWDPNLRTTLLELSQGQNTASLDQLGWLDAQVGLAFATAANTLIAKTGIKHTQIRAIGSHGQTIRHRPHGDLPFTWQLGDAHRIAELTGITTVADFRRRDVAAGGQGAPLMPAFHLAILGSANENRAVLNLGGIANLTLIPMTGPVLGFDTGPANALLDSWYQRHHHETFDQSGNFAASGKINQKLLACLLDDPWFTLPPPKSTGREQFHLDWMTKQLEPTPPSPADVQATLLELTAVTVADALLRQQPKTTRLLICGGGAHNPVLMARLATHLPNVTVESIQTYGLNPDYLEAMGFAWLAAQTLDGQPSNLPSVTGARGLRLLGAIHPA,not soluble
6,PMILGYWNVRGLTHPIRLLLEYTDSSYEEKRYAMGDAPDYDRSQWLNEKFKLGLDFPNLPYLIDGSRKITQSNAIMRYLARKHHLCGETEEERIRADIVENQVMDNRMQLIMLCFNPDFEKQKPEFLKTIPEKMKLYSEFLGKRPWFAGDKVTYVDFLAYDILDQYHIFEPKCLDAFPNLKDFLARFEGLKKISAYMKSSRYLSTPIFSKLAQWSNK,soluble
7,PNLTEISKKITESNAVVLAVKEVETLLASIDELATKAIGKKIGNNGLEANQSKNTSLLSGAYAISDLIAEKLNVLKNEELKEKIDTAKQCSTEFTNKLKSEHAVLGLDNLTDDNAQRAILKKHANKDKGAAELEKLFKAVENLSKAAQDTLKNAVKELTSPIVA,soluble
8,PPKWKVKKQKLAEKAAREAELTAKKAQARQALSIYLNLPTLDEAVNTLKPWWPGLFDGDTPRLLACGIRDVLLEDVAQRNIPLSHKKLRRAMKAITRSESYLCAMKAGACRYDTEGYVTEHISQEEEVYAAERLDKIRRQNRIKAELQAVLD,soluble
9,PQMKTLETRSCILRPASLDDVEDFFDCYKNKIVVKHLPFSEHKSLEDTRKFIKSFFLNPYKKGKIGHFAIVYKRDNKVIGNMGFNNINPKALEAEIGICINPSYWGHDFATEITKRVIQYGFRELNLNKIIAITYEENQNSTKSLDLLGFKCTGKYIKKIHTGNTVKNVPCYQYELKKQ,not soluble
10,PRTVKELTVSAGDNLIITLPDNEVELKAFVAPAPPVETTYNYEWNLISHPTDYQGEIKQGHKQTLNLSQLSVGLYVFKVTVSSENAFGEGFVNVTVKPAR,soluble
11,PSEHLEHLFQYIVNDDKTYMKKLVSGHGIVDPTNPYEEFKLTKLQAAIQRKIGYTFDPKSERLLPPTLTELEKGNAVLAHHLIQSFSPEDDLTPEKIHEIGYNTVMELTGGEYEFVIATHVDKEHLHNHIIFSSTNLKTGKAFRWQKGTKKVFEQISDKIAAKEGAKIIEKSPKQTHTKYTKWQTESIYKQKIKSRLDFLLEQSSSINDFLEKAEALNLSADFSNKWTTYRLLDEPQIKNTRSRSLSKSDPTRYNYEKIIERLKENKNVL,not soluble
12,PSVQVPQSTILYASDGSKLGETNYGEKRYWVPLKDMNPTIVKATVAIEDQNFYDHHGFDYKRMAGAALADLKAFAKVQGASTITQQYARNLYLEHDKTWKRKWNEAFYTIRLEQNYSKDEILEGYLNTIYYGHGAYGIEAASRLYFGKHAKNLTDAEAALLAGIPKGPSGY,not soluble
13,PTGNNAEICLLPLDYGPCRALLLRYYYDRYTQSCRQFLYGGCEGNANNFYTWEACDDACWRIE,soluble
14,QDWLTFQKKHITNTRDVDCDNIMSTNLFHCKDKNTFIYSRPEPVKAICKGIIASKNVLTTSEFYLSDCNVTSRPCKYKLKKSTNKFCVNCANQAPVHFVGVGSC,soluble
15,QEARTGNDIAQLPAISVTGREISDLTEGTNAYTTEAMSTATGLTLSPRETPQSVSVVTRQQIEDQGLTDTGAILATAPGISVTRSDSNRYSFSARGFTIDNFQFDGLVSPILSQWNYGSTDMDAAIYDHVEIVRGATGLMTGSGNPSAAVNFVRKRPLREFAATFNASVGSWDYVRGDADISVPITEDGRIRSRLVAAYSQGDSYVHFLDTRRRTFYGVVSADLTPDTVLTTSVEYQHNHSNGFGSGFPLFYSDGSRTDFNRSVANNAPWARQDTEATTYFVDLTHRFTNDWKLRAAYSHTDGRYLMKHVYRGGYPDRHTGIIAAPPAFSNYDGNLDRDDIHFSLSAPFEAFGLRHEVALGWMSIDNHSDIQRYAMVGPAPAIGSFFDWRRAGSHHHHHHHIQEPSWADTLSPADDVRTKQTGAYLVGRFALAEPLHLIVGDRWSDWKTKQMYFGSRREYRIKNQFTPYAGLTYDINDTYTAYASYTEIFQPQNARDTSGGILPPIKSKSYELGLKAAYLEGRLNTSAALFQTRQDNLAQVIPGSSIPGFPNMQASRAASGAKVEGIDLEASGQILPDWNIGASYTHFTTKDASGNPINTNHPRSLFKLYTTYRLPGALHRLTVGGGVDWQSRMYQAAASPRGNVEVEQDSYALVSLMARFDFNKKLSATLNVNNLFDKKYYDQIGFYSQGWWGAPRNVMLNLRAQY,soluble
16,QEPFHVVTPLLESWALSQVAGMPVFLKCENVQPSGSFKIRGIGHFCQEMAKKGCRHLVCSSGGNAGIAAAYAARKLGIPATIVLPESTSLQVVQRLQGEGAEVQLTGKVWDEANLRAQELAKRDGWENVPPFDHPLIWKGHASLVQELKAVLRTPPGALVLAVGGGGLLAGVVAGLLEVGWQHVPIIAMETHGAHCFNAAITAGKLVTLPDITSVAKSLGAKTVAARALECMQVCKIHSEVVEDTEAVSAVQQLLDDERMLVEPACGAALAAIYSGLLRRLQAEGCLPPSLTSVVVIVCGGNNINSRELQALKTHLGQ,soluble
17,QIIKDVVVWKTSLQDSDTPEKTLVFTATIKPGWHLYDQNLPEDGPTSTEFLFDKMTGAKLVGKAIPDKAPVNRYDKQFEMDLRWYEKTVSFRQKIQVTDPAKFSIKGGVRFMACNDENCLPPETSDFSFDASMIKSKAAAPDTEAEAAEAVAAETAADTTSQTDAAEALSSKADLWTPVVSELRAYGDDTLKQAESAPWKIFLYG,not soluble
18,QKGRVETRRVVHIMDFQRGKNLRYQLLQLVEPFGVISNHLILNKINEAFIEMATTEDAQAAVDYYTTTPALVFGKPVRVHLSQKYKRIK,soluble
19,QKKVNVTGAVGMVSAEALEARPVANASQALQGVVPGLNLTVGNNGGALDGTLNMNIRGAGTIGDGSGSSPLVLIDGIEGDLNTVNPNDIESVSVLKDAASASIYGARASFGVILVTTKSGKSG,not soluble
20,QNLGAAVAILGGPGTVQGVVRFLQLTPERCLIEGTIDGLEPGLHGLHVHQYGDLTNNCNSCGNHFNPDGASHGGPQDSDRHRGDLGNVRADADGRAIFRMEDEQLKVWDVIGRSLIIDEGEDDLGRGGHPLSKITGNSGERLACGIIARSAGLF,soluble
21,QPSLLDRLVDDEPWRRSEAPEAALLTHAGLRAAVLRDLRWLLNTVNLASSQDLAPYRHVPASSVNFGVRAMAGRRMSEIDWVDVETSIRDAIAAFEPRILESSVEVRCVSDTRTLEHHNVLSLEIRGMLWCVPHPREFLFRTDIDLE,not soluble
22,QRDIPVQFIVAGVKRSDLRNLVEERIRKEGTKTREIRYREIGHYNGSVENIHLSVDKYEAAGGTEYFISYVTDDDHIVGFVRLRQPSEMAHRQEMLGSAIVRELKVFGQEVPVGRRDLKNWQHHGYGMRLMEEAERIARDDLGLDRILVISGIGVRQYFRKIGYEDLGPYVAKSLK,not soluble
23,QRHADLIAARAGRPVTITAVCARDRSKNRDADLSGYAWETDAVALAQRADIDVFVEVMGGSEGAARASTEAALAAGKDVVTANKALLAHHGQALAEMAEAAGLAIRFEAAVAGGIPVIKALTEGLAGNQMRRVMGVMNGTCNYILTR,not soluble
24,QRKNNNKRWYFTREQLENSPSRRFGLDPDKELSYRQQAANLLQDMGQRLNVSQLTINTAIVYMHRFYMIQSFTRFHRNSVAPAALFLAAKVEEQPKKLEHVIKVAHTCLHPQESLPDTRSEAYLQQVQDLVILESIILQTLGFELTIDHPHTHVVKCTQLVRASKDLAQTSYFMATNSLHLTTFSLQYTPPVVACVCIHLACKWSNWEIPVSTDGKHWWEYVDATVTLELLDELTHEFLQILEKTPNRLKRIWNWRACQAAKKT,soluble
25,QSRGEKRTAHNAIEKRYRSSINDKIIELKDLVVGTEAKLNKSAVLRKAIDYIRFLQHSNQKLKQENLSLRTAVHKSKSLKDL,soluble
26,QTITIKGQVLDEKKQPVSYASVVISTDSLSKKDISYAVTDEHGQFRIGQLSAIPDKRWIHVRSIGYLGFHKQISLRAVKSPLDITLTEDTKELEEVVVVARARDAYAKGDTIVFNSKNYTLGNERNLGDVVKKMPGMEVDQTGNISYQGKKIGKVLVDGQDILSSSSGVAMNTLPPDFANSIELLSNYTDGDIAHAFKAEEQLALNLKSNKKVALSGSFEGGGGLKDKFISKASLITVLPKISASTIINANNTGEAVFSIQDYMSNIIDFESIRSGASTQTSLSLSPEEQQLLLPPTNEHARTAGLANINISWTPHSSYKLRASTLFNKGKSEGAHTKTDTYTLPENYFTNISTGTADKETQLVSQYLSQKWIPSRFFSVSAKTKIDIRNHNADNIYANTFNDNHIHALEKPKNHFSGIKQDIEMKWLLSKGLLFGGGSFVFNKGKINSDIYTDVLLLPLPHINGNSIYPYFHEHIKKDMEKGFNAYVGGMYPVLNNIYLRGEFSMSMNWNELKMAYPTSINEETADLRVFRPYISLMKNKGVFRFNIGSYFSSYRQKTSPELLREKSLFYIEPHASIELVMSNQHRLMLSVSEAVSPSTIDYFSQQILAKGYNNLQLPSKLSNPFAKRFKGNLSYAYFSLFNRLSMYGNLSYIKDRDTHITVTTSKGLLISNFYQDGGWSNTLRTNAYLSKGIGTLPLDIKLSGKYTLSKHNLMRVDKEDELINKRVDAKLDLISRLYQSPVNFEIGVRFSRLDQKFTYSNIHSWNQE,not soluble
